Measurements taken from the DeepSol protein solubility set.

Assay: soluble on expression in E. coli; label from the status in PepcDB or PDB records

| Sequence | soluble on expression in E. coli |
| --- | --- |
| MSLDSRLPAFRNLSPAARLDHIGQLLGLSHDDVSLLANAGALPMDIANGMIENVIGTFELPYAVASNFQINGRDVLVPLVVEEPSIVAAASYMAKLARANGGFTTSSSAPLMHAQVQIVGIQDPLNARLSLLRRKDEIIELANRKDQLLNSLGGGCRDIEVHTFADTPRGPMLVAHLIVDVRDAMGANTVNTMAEAVAPLMEAITGGQVRLRILSNLADLRLARAQVRITPQQLETAEFSGEAVIEGILDAYAFAAVDPYRAATHNKGIMNGIDPLIVATGNDWRAVEAGAHAYACRSGHYGSLTTWEKDNNGHLVGTLEMPMPVGLVGGATKTHPLAQLSLRILGVKTAQALAEIAVAVGLAQNLGAMRALATEGIQRGHMALHARNIAVVAGARGDEVDWVARQLVEYHDVRADRAVALLKQKRGQ | soluble |
| MTYSHEVEHMCVVKKGPNHGPAPIPEEGKWVKSKEIVDISGLTHGIGWCAPQQGACKLTLNVKEGVIQEALVETIGCSGMTHSAAMAAEILPGKTILEALNTDLVCDAINTAMRELFLQIVYGRTQSAFSEGGLIIGAGLEDLGKGLRSQVGTLYGTLAKGPRYLEMAEGYIKNIFLDKNDEICGYEFVHMGKFMDEIKKGTDANEALKKVTGTYGRVTAEQGAVKHIDPRHE | not soluble |
| MSLDVRIVDIDSEKPPEAKRCFLLSDVHGRADDIDTKYFNYDFDFLFFAGDMSNKSKYHEIKSFKKWINKMKAKYKIVVAGNHDLVFDREEFNDIIIGNHTAQEIRDLILKDKNIIYLEHEEITIEGIKIFGTPLSNIRIHQAFKEPYEDENDPHEEYLFFSIPDSTNIVLSHGVMKGYLDKEPNSRCKGSYGLRHAIDRVKPDLLICGHMHGCQGHTTHNNTTVILPSFCKRDKFGEETNNPYIIDIIPKLSLRMSIWKKSEKIPKMLKMNFPNVFFYLIFLILKKIWREELFVFEFYHDGEGHHHHHH | soluble |
| MYAALFPGQGSHRVGMGRALYEASPAAKEVLDRAEAALPGLLKLMWEGPEEALTLTENQQPALLAAGYAAYRAFLEAGGKPPALPEGHSLGEWTAHVAAGTLELEDALRLVRLRGRYMQEAVPVGEGAMAAVLKLPLEEIQKALEGLEGVEIANLNAPEQTVISGRRQAVEEAAERLKERRARVVFLPVSAPFHSSLMAPARKRLAEDLAQVPLRRPRFPVYSNVTARPEEDPERIRALLLEQITAPVRWVEILRDMEARGVKRFLEFGSGEVLKGLVLRTLKEAEALSVQDPDSLRKALEVERA | soluble |
| MTQGAVKTTGKRSRAVSAKKKAILSAALDTFSQFGFHGTRLEQIAELAGVSKTNLLYYFPSKEALYIAVLRQILDIWLAPLKAFREDFAPLAAIKEYIRLKLEVSRDYPQASRLFCMEMLAGAPLLMDELTGDLKALIDEKSALIAGWVKSGKLAPIDPQHLIFMIWASTQHYADFAPQVEAVTGATLRDEVFFNQTVENVQRIIIEGIRPR | soluble |
| MLILSEQEIQRLYTMEEAISDVKEILRQKQAGNVNTPERTVLSFPHYDASILYMPSVKTGAAAVKVVSIFPHNPPLGKPTTQGVIILTDTKTEEHRMLCNATYLTRLRTGALSAIAADYLAKREASRLAVIGTGAMAREQVAGMLEVRGIEHIFLYNRTRSKAERFALEGW | not soluble |
| MTDTIEAKANMQTVSALPPEETERLGTEIVAALKTVFDPEIPADIYELGLIYKVEIKDDRTVDIDMTLTTPNCPAAAELPTMVENAVASVPGVGVVNVNIVWEPPWTPERMSDEARLVLNMW | not soluble |
| MSLNFLEFEKPIAELEAKIEALRDVSRHGGDSAIDLDKEIEQLEKKSLELKKKIFSDLGAWETAQLARHPLRPYTLDYVQHVFEEFDELAGDRAFADDKAIVGGIARLEGRPVMIIGHQKGRETKEKVRRNFGMPKPEGYRKALRLMEMAERFNMPIITFIDTAGAYPGVGAEERGQSEAIAKNLKVMSGLKVPVICNVVGEGGSGGALAIGVGDYVNMLQYSTYSVISPEGCASILWRDSDKAPQAAEAMGLTAPRLKELELIDEIIEEPLGGAHRDHVKMAENMKATLLRQLEDLEQLDEESLRERRYQRLMNYGYC | not soluble |
| MSIRFARKADCAAIAEIYNHAVLYTAAIWNDQTVDADNRIAWFEARTLAGYPVLVSEENGVVTGYASFGDWRSFDGFRHTVEHSVYVHPDHQGKGLGRKLLSRLIDEARDCGKHVMVAGIESQNQASLHLHQSLGFVVTAQMPQVGTKFGRWLDLTFMQLQLDERTEPDAIG | soluble |
| YLLGAFKPACNISITFSDGKNRKQVPMKKENGQTALVPLFHSQDTISGKVCIEPYQGKKVEHNGVKVELLGQIANYSYDSFLLLTTVRELDVPGEIYERKTYPFEFPTVEMPYETYNGVNVRLRYVLKVTVTRGYAGSILEYQELVRNYAPLPDINNSIKMEVGIEDCLHIEFEYNKSKYHLKDVILGKIYFLLVRIKMKNMDLEIRRRESTGAGANTHVETETLAKFELMDGTPVRGESIPVRLFLAPYDLTPTHRNINNKFSVKYYLNLVLVDEEDRRYFKQQEITLYRLKEDASS | soluble |
| MAQTDKPTCIPPELPKMLKEFAKAAIRVQPQDLIQWAADYFEALSRGETPPVRERSERVALCNRAELTPELLKILHSQVAGRLIIRAEELAQMWKVVNLPTDLFNSVMNVGRFTEEIEWLKFLALACSALGVTITKTLKIVCEVLSCDHNGGSPRIPFSTFQFLYTYIAKVDGEISASHVSRMLNYMEQEVIGPDGIITVNDFTQNPRVQLE | soluble |
| GSMETSMPEYYEVFGEFRGVLMDKRFTKYWEDVEMFLARPDDLVIATYPKSGTTWISEVVYMIYKEGDVEKCKEDAIFNRIPYLECRNEDLINGIKQLKEKESPRIVKTHLPPKLLPASFWEKNCKMIYLCRNAKDVAVSYYYFLLMITSYPNPKSFSEFVEKFMQGQVPYGSWYDHVKAWWEKSKNSRVLFMFYEDMKEDIRREVVKLIEFLERKPSAELVDRIIQHTSFQEMKNNPSTNYTMMPEEMMNQKVSPFMRKGIIGDWKNHFPEALRERFDEHYKQQMKDCTVKFRMEL | soluble |
| MGSDKIHHHHHHSQGKQISGSSNYITKNIKVGSFDQIKSMSSSDIVYTQKQGAPTVQIYGPDNIVELMETSVSGRTLTIKFKKNTSIRNSGKLEIRVSSPSLKHLSIYGSGNTTFTNGIKSHDELQMSIYGSGNISGNSFSCTKLAARIYGSGNVNLKRISTSDTQVNISGSGNVLLDGKSTEAEYHIAGSGDINATELKVENVNARISGSGSIRCYATENLTGGVSGSGNVAYKGNPQINFSKRGLQKL | not soluble |
| MGSDKIHHHHHHMVAKKKILFFMWSFSLGGGAEKILSTIVSNLDPEKYDIDILEMEHFDKGYESVPKHVRILKSLQDYRQTRWLRAFLWRMRIYFPRLTRRLLVKDDYDVEVSFTIMNPPLLFSKRREVKKISWIHGSIEELLKDSSKRESHRSQLDAANTIVGISKKTSNSIKEVYPDYTSKLQTIYNGYDFQTILEKSQEKIDIEIAPQSICTIGRIEENKGSDRVVEVIRLLHQEGKNYHLYFIGAGDMEEELKKRVKEYGIEDYVHFLGYQKNPYQYLSQTKVLLSMSKQEGFPGVYVEALSLGLPFISTDVGGAEELSQEGRFGQIIESNQEAAQAITNYMTSASNFDVDEASQFIQQFTITKQIEQVEKLLEE | not soluble |
| MGSDKIHHHHHHMPALCSTVQTLEKLAKDDVSSLALLGRSVMHDNALTSRILRVANSAIYHKGSTQISTVSRAAIVLGFDAVRNICITAQLLSSLLESKNLAPSVYQRLIKLMAKAFQAAMLTRMMLSDYDDDIQEEAFIACLLFHIGESAFWSIGGEFTETLDSQLTECETSADERSLIRETIGTSFSQLTQSIARHWGLGELLIQAVNYPDDPRPEIRSIFLADKLCDTLSVATPDKNDLEKYINQAANFTGLDETEFTLKMQRCTKATHKLAEAYGAKVLIDYLPDPQRIDKLEPYLPEAELPIFEANLNVQLVKLRELTAFAINKADFNQIMQTVLEGILEGVGVDRCGVLLLSPSRKQLQPRIMLGRDAEEMKRQFIIELGDRKGLFPMAMEHKESLWVDSPCAKKWQEQCRELKVQLPESGFLVAPLLVDNKVIGFYYADRGPSERCFAEVDFQAFIHFSQLANVCFTVSLK | not soluble |
| MGSDKIHHHHHHMPINKLALVRYKTIDSCLQNRFRKWTLEDLMEACSDALYEYEGMTKGISRRTIQLDIQNMRSEKLGYNAPIIVTDKKFYSYEDKGYSITNSPLTQQDLGTLVEVLDVLKQFKGFGYFQELTGMVTRLEDKLYTHQHKGKSYIDFEKNELLKGLQHIDLLHKAIINKKTVDILYQSFKAASAQNITFYPYLLKEYRNRWFILGCNKRTKATMILALDRIEQFKELRSEKYMKPDFDVATYFDDVIGVSKMPNQEPQLIVCKISKEHAPYIITKPIHASQQIIRGEKDGTVFSIHVIWNFELERELLGFGEQLQVLAPRRIQGKLRARMKRAVAAYESEKKE | not soluble |
| MLSEERVKELLKKLKDLKILVVGDVILDTYLYGNVERISPEAPVPVLEVEGEEFRLGGAGNVAKNLSSLGVETYLCGVVGKDEAGKRLRELIEGNSIRSFLIEDERPTTKKTRVVSRNQQLLRIDWEDRSYISGKALEKILDVIKNLQVDGIIVSDYAKGVITEEVIKTIREKGVFYSVDPRPKHRELYRKAYLMTPNEKELREMSKFEGSVEELGKKLKEELELETLIVTRGEKGMSLFTEKGVKHFPARARKVYDVTGAGDTVIASITAFKLAGATWEECCELGNVCGGIVVGEFGTATVTPEKLLKAVKLNS | not soluble |
| MEEHPKILSIAGSDSCAGAGMQADLKTAMSLGCHCCTILVVLTAQNTKEVKSIIEVDEKFIVEQLDAIFTDITIEVVKLGVLYSKKIISLIHNYITNINKMREKKLLVVFDPVFVSSSGCMLVENLDYVKYALDLICPLSCIITPNFYECKVILEALNFNIDINNMRTSDLCKLVTEKLNINACLFKSCNIDINTEDENKLYAVDHLCIKNDNDYDTKIKQNISYDVYKLKSKRNPQKDIHGTGCTLSTAISCFLSKKYDIIQACIESKKYIYNCINYAYDLGSKSQGLNHLKAAQHLTDFRELQVIKVD | not soluble |
| MALIEKNTQFDADKLTANVVGIAADVGKHDSGMHQHHKGQLLYAPQGCMTFALNDSICILPPTKAVWIPPHTPHRAVMTNVVAYRSVYFDCDKFSCPKSIVMIEVNDLLKALINKMALWEWDIEQTKTNATTILFWEEFYQAKQFELTLPLPSDRRLASFRNAMTKDGFIAPD | not soluble |
| MAYCNPGLESRPNKRNALRRHVVTGIGMKIVIAPDSYKESLSASEVAQAIEKGFREIFPDAQYVSVPVADGGEGTVEAMIAATQGAERHAWVTGPLGEKVNASWGISGDGKTAFIEMAAASGLELVPAEKRDPLVTTSRGTGELILQALESGATNIIIGIGGSATNDGGAGMVQALGAKLCDANGNEIGFGGGSLNTLNDIDISGLDPRLKDCVIRVACDVTNPLVGDNGASRIFGPQKGASEAMIVELDNNLSHYAEVIKKALHVDVKDVPGAGAAGGMGAALMAFLGAELKSGIEIVTTALNLEEHIHDCTLVITGEGRIDSQSIHGKVPIGVANVAKKYHKPVIGIAGSLTDDVGVVHQHGIDAVFSVLTSIGTLDEAFRGAYDNICRASRNIAATLAIGMRNAG | soluble |
| MGSDKIHHHHHHMWFRSKPGKSRAAAKGRDVQSTPKASTDVVLERVRLPVDLLQPGMKVVKLDRPWTEVPVLFQGFTLQTEAEARVLRQYCAWVVVEDEAERLAPVLDQIPHLKQRTTEPLQETRTLEQELPRAADTWSRTQQFVEKLIRDIEQNNDLELASARPLIRSCVDSVKTNASAMFWMARIKHRDAYTAEHCLRVAILTVAFARFLGLPEDDLEVAGMCGLLHDIGKLRVPDEILNKPGPLSPQEYEVMRKHTTLGHELLKQDPSLDPIISDVTLHHHERIDGRGYPQQLPEWQISRFARLIAIVDAYDAMTSDRCYRDGMSPADAVRILYKNRAQQFDADMVEAFIRMIGIYPPGSLVELNTGEVALVVSTHPGRKLKPKVEILLDNNKHPVTPRVMDLGSQTTTDGPVREIKAPLPDGAFGISLEGRVKQLMAKTIANHS | not soluble |
